Results on 13 molecules are retold here after US20230312742A1 (Y MABS THERAPEUTICS, published 2023).

In test [1] the target is T1, human CD38 antigen (recombinant human CD38 protein) (human, UniProt P28907 43-300, limits assumed). Description: SPR, BsAb (1 µg/ml) captured on anti-human Fc chip, human CD38 in solution; average, N=6.
Test [2] addresses T2, CD38 on CD38(+) cancer cells (RPMI8226, Raji, Daudi) (UniProt P28907 1-300, limits assumed).
T2 construct: whole, on cells; Endogenous CD38 on tumour cell lines; also called CD38(+) tumor cells; CD38(+) Raji cells
Kind of test: flow cytometry on RPMI8226 cells.

Test [3] deals with T1, human CD38 antigen (recombinant human …). Description: SPR, IgG captured on anti-human Fc, human CD38 in solution. (Surface plasmon resonance follows binding to a sensor surface in real time, without labels.)
The target in test [4] is T2, CD38 on CD38(+) cancer cells (RPMI8226, …). Kind of test: flow cytometry on Daudi cells, goat anti-human IgG fluorochrome-conjugated secondary antibody. Background: Flow cytometry measures light scatter and fluorescence of single cells or particles in a stream.

B1: 8DC1OK (CD3xCD38 bispecific antibody, IgG-L-scFv format, chimeric AT13/5 VL and VH) (bispecific antibody)
light: DIQLTQSPSSFSVSLGDRVTITCKASEDIYNRLTWYQQKPGNAPRLLISGATSLETGVPSRFSGSGSGKDYTLSITSLQTEDVATYYCQQYWSNPYTFGGGTKLEIRRTVAAPSVFIFPPSDEQLKSGTASVVCLLNNFYPREAKVQWKVDNALQSGNSQESVTEQDSKDSTYSLSSTLTLSKADYEKHKVYACEVTHQGLSSPVTKSFNRGECGGGGSGGGGSGGGGSGGGGSQVQLVQSGGGVVQPGRSLRLSCKASGYTFTRYTMHWVRQAPGKCLEWIGYINPSRGYTNYNQKFKDRFTISRDNSKNTAFLQMDSLRPEDTGVYFCARYYDDHYSLDYWGQGTPVTVSSGGGGSGGGGSGGGGSGGGGSGGGGSGGGGSDIQMTQSPSSLSASVGDRVTITCSASSSVSYMNWYQQTPGKAPKRWIYDTSKLASGVPSRFSGSGSGTDYTFTISSLQPEDIATYYCQQWSSNPFTFGCGTKLQITR
heavy: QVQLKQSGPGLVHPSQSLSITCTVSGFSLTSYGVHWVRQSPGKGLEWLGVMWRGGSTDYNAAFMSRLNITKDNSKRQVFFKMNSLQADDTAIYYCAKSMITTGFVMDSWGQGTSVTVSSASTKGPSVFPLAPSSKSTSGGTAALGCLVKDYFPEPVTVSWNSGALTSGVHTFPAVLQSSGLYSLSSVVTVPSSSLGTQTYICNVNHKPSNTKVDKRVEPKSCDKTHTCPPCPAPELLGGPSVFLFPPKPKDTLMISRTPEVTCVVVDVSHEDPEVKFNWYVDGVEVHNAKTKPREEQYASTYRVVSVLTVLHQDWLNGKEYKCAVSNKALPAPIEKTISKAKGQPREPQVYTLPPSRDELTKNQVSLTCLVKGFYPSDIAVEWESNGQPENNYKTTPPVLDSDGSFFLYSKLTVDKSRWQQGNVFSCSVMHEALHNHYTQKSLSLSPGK
notes: Light chain: anti-CD38 VL-CL-(G4S)4-huOKT3 VH-(G4S)6-huOKT3 VL; also called the chimeric antibody 8DC1OK
For orientation: Kd means the constant that tells how readily two partners part at equilibrium. Broadly, the koff is a measure of how fast the partners let go of each other. Usually kon stands for a measure of how fast the partners come together. A word on the EC50: it is the midpoint of the concentration-response curve. B1: in test [1], the Kd amounted to 1.6 nM, the off-rate (koff) was 0.00076 s⁻¹ and the kon worked out at 470000 M⁻¹ s⁻¹. The molecule further showed a concentration giving a half-maximal response (EC50) in test [2] of 0.076 µg/mL.

B2: L3H4 (antibody, V domains shown)
VH: QVQLQESGPGLVKPSETLSLTCTVSGFSLTSYGVHWIRQPPGKGLEWIGVMWRGGSTDYNPSLKSRVTISVDTSKRQVSLKLSSVTAADTAVYYCAKSMITTGFVMDSWGQGTLVTVSS
VL: DIQMTQSPSSLSASVGDRVTITCRASEDIYNRLTWYQQKPGKAPKLLLSGATSLETGVPSRFSGSGSGTDYTLTISSLQPEDFATYYCQQYWSNPYTFGGGTKVEIK
notes: Humanized AT13/5 IgG, VL3 + VH4
As to B2, the Kd in test [3] came to 1200 nM.

B3: L4H1 (antibody, V domains shown)
VH: QVQLQESGPGLVKPSETLSLTCTVSGFSLTSYGVHWIRQPPGKGLEWIGVMWRGGSTDYNPSLKSRVTISKDNSKRQFSLKLSSVTAADTAVYYCAKSMITTGFVMDSWGQGTLVTVSS
VL: DIQMTQSPSSLSASVGDRVTITCRASEDIYNRLTWYQQKPGKAPKLLLYGATSLETGVPSRFSGSGSGKDYTLTISSLQPEDFATYYCQQYWSNPYTFGGGTKVEIK
notes: Humanized AT13/5 IgG, VL4 + VH1
Turning to B3, in test [3], the Kd was determined as 100 nM.

B4: L4H3 (antibody, V domains shown)
VH: QVQLQESGPGLVKPSETLSITCTVSGFSLTSYGVHWIRQPPGKGLEWIGVMWRGGSTDYNPSLKSRVTISKDTSKNQFSLKLSSLTAADTAVYYCAKSMITTGFVMDSWGQGTLVTVSS
VL: DIQMTQSPSSLSASVGDRVTITCRASEDIYNRLTWYQQKPGKAPKLLLYGATSLETGVPSRFSGSGSGKDYTLTISSLQPEDFATYYCQQYWSNPYTFGGGTKVEIK
notes: Humanized AT13/5 IgG, VL4 + VH3
Turning to B4, in test [3], the equilibrium dissociation constant (Kd) was determined as 200 nM.

B5: L3H7 (antibody, V domains shown)
VH: QVQLKQSGPGLVKPSETLSLTCTVSGFSLTSYGVHWIRQPPGKGLEWIGVMWRGGSTNYNPSLKSRLTISVDTSKNQFSLKLSSVTAADTAVYYCAKSMITTGFVMDSWGQGTLVTVSS
VL: DIQMTQSPSSLSASVGDRVTITCRASEDIYNRLTWYQQKPGKAPKLLLSGATSLETGVPSRFSGSGSGTDYTLTISSLQPEDFATYYCQQYWSNPYTFGGGTKVEIK
notes: Humanized AT13/5 IgG, VL3 + VH7
Consider B5, for which the Kd in test [3] is 100 nM.

B6: L3H6 (antibody, V domains shown)
VH: QVQLQESGPGLVKPSETLSLTCTVSGFSLTSYGVHWIRQPPGKGLEWLGVMWRGGSTNYNPSLKSRVTISKDTSKNQFSLKLSSVTAADTAVYYCAKSMITTGFVMDSWGQGTLVTVSS
VL: DIQMTQSPSSLSASVGDRVTITCRASEDIYNRLTWYQQKPGKAPKLLLSGATSLETGVPSRFSGSGSGTDYTLTISSLQPEDFATYYCQQYWSNPYTFGGGTKVEIK
notes: Humanized AT13/5 IgG, VL3 + VH6
As to B6, in test [3], the dissociation constant Kd was found to be 1300 nM.

B7: L4H7 (antibody, V domains shown)
VH: QVQLKQSGPGLVKPSETLSLTCTVSGFSLTSYGVHWIRQPPGKGLEWIGVMWRGGSTNYNPSLKSRLTISVDTSKNQFSLKLSSVTAADTAVYYCAKSMITTGFVMDSWGQGTLVTVSS
VL: DIQMTQSPSSLSASVGDRVTITCRASEDIYNRLTWYQQKPGKAPKLLLYGATSLETGVPSRFSGSGSGKDYTLTISSLQPEDFATYYCQQYWSNPYTFGGGTKVEIK
notes: Humanized AT13/5 IgG, VL4 + VH7
Turning to B7, the Kd in test [3] was 870 nM.

B8: L4H4 (antibody, V domains shown)
VH: QVQLQESGPGLVKPSETLSLTCTVSGFSLTSYGVHWIRQPPGKGLEWIGVMWRGGSTDYNPSLKSRVTISVDTSKRQVSLKLSSVTAADTAVYYCAKSMITTGFVMDSWGQGTLVTVSS
VL: DIQMTQSPSSLSASVGDRVTITCRASEDIYNRLTWYQQKPGKAPKLLLYGATSLETGVPSRFSGSGSGKDYTLTISSLQPEDFATYYCQQYWSNPYTFGGGTKVEIK
notes: Humanized AT13/5 IgG, VL4 + VH4
As to B8, the Kd in test [3] turned out to be 140 nM.

B9: L4H5 (antibody, V domains shown)
VH: QVQLQESGPGLVKPSETLSLTCTVSGFSLTSYGVHWIRQPPGKGLEWIGVMWRGGSTDYNPSLKSRVTISVDTSKNQFSFKLSSVTAADTAIYYCAKSMITTGFVMDSWGQGTLVTVSS
VL: DIQMTQSPSSLSASVGDRVTITCRASEDIYNRLTWYQQKPGKAPKLLLYGATSLETGVPSRFSGSGSGKDYTLTISSLQPEDFATYYCQQYWSNPYTFGGGTKVEIK
notes: Humanized AT13/5 IgG, VL4 + VH5
Turning to B9, the Kd in test [3] was found to be 320 nM.

B10: L4H6 (antibody, V domains shown)
VH: QVQLQESGPGLVKPSETLSLTCTVSGFSLTSYGVHWIRQPPGKGLEWLGVMWRGGSTNYNPSLKSRVTISKDTSKNQFSLKLSSVTAADTAVYYCAKSMITTGFVMDSWGQGTLVTVSS
VL: DIQMTQSPSSLSASVGDRVTITCRASEDIYNRLTWYQQKPGKAPKLLLYGATSLETGVPSRFSGSGSGKDYTLTISSLQPEDFATYYCQQYWSNPYTFGGGTKVEIK
notes: Humanized AT13/5 IgG, VL4 + VH6
For the molecule B10, the Kd in test [3] was determined as 580 nM.

B11: L4H2 (antibody, V domains shown)
VH: QVQLQESGPGLVKPSETLSLTCTVSGFSLTSYGVHWVRQPPGKGLEWIGVMWRGGSTDYNPSLKSRVTISKDNSKRQFSLKMSSVTAADTAVYYCAKSMITTGFVMDSWGQGTLVTVSS
VL: DIQMTQSPSSLSASVGDRVTITCRASEDIYNRLTWYQQKPGKAPKLLLYGATSLETGVPSRFSGSGSGKDYTLTISSLQPEDFATYYCQQYWSNPYTFGGGTKVEIK
notes: Humanized AT13/5 IgG, VL4 + VH2
For the molecule B11, in test [3], the Kd was found to be 250 nM.

B12: 8DC3OK (CD3xCD38 bispecific antibody, IgG-L-scFv format, humanized VL5 and VH8) (bispecific antibody)
light: DIQLTQSPSSLSASVGDRVTITCKASEDIYNRLTWYQQKPGKAPKLLISGATSLETGVPSRFSGSGSGKDYTFTISSLQPEDFATYYCQQYWSNPYTFGQGTKLEIKRTVAAPSVFIFPPSDEQLKSGTASVVCLLNNFYPREAKVQWKVDNALQSGNSQESVTEQDSKDSTYSLSSTLTLSKADYEKHKVYACEVTHQGLSSPVTKSFNRGECGGGGSGGGGSGGGGSGGGGSQVQLVQSGGGVVQPGRSLRLSCKASGYTFTRYTMHWVRQAPGKCLEWIGYINPSRGYTNYNQKFKDRFTISRDNSKNTAFLQMDSLRPEDTGVYFCARYYDDHYSLDYWGQGTPVTVSSGGGGSGGGGSGGGGSGGGGSGGGGSGGGGSDIQMTQSPSSLSASVGDRVTITCSASSSVSYMNWYQQTPGKAPKRWIYDTSKLASGVPSRFSGSGSGTDYTFTISSLQPEDIATYYCQQWSSNPFTFGCGTKLQITR
heavy: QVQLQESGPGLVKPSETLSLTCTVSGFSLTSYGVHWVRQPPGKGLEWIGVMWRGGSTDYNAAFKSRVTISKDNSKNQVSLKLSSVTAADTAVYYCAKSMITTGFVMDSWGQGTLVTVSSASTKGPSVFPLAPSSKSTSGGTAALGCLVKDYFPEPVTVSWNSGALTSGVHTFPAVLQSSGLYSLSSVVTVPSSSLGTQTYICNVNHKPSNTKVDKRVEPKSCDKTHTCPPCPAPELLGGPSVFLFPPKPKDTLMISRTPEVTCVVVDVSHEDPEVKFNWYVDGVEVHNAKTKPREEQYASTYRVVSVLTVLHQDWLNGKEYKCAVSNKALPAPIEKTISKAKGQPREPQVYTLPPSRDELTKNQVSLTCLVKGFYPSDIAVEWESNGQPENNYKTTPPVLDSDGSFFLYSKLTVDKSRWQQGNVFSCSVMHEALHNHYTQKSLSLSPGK
notes: Light chain: anti-CD38 VL-CL-(G4S)4-huOKT3 VH-(G4S)6-huOKT3 VL
For orientation: EC50 (read off the curve) means the midpoint of the concentration-response curve. A low value points to a more potent agent. As to B12, in test [1], the dissociation constant (Kd) worked out at 8.8 nM, the koff worked out at 0.0018 s⁻¹ and the on-rate constant (kon) is 210000 M⁻¹ s⁻¹. Moreover, the 50% effective concentration (EC50 (read off the curve)) in test [4] is about 100 ng/mL. In test [2], a half-maximal effect (EC50) was put at 0.167 µg/mL and the “fold weaker EC50 than the chimeric antibody 8DC1OK” value is about 2 fold.

B13: Chimeric (chimeric AT13/5 anti-CD38 IgG) (antibody, V domains shown)
VH: QVQLKQSGPGLVHPSQSLSITCTVSGFSLTSYGVHWVRQSPGKGLEWLGVMWRGGSTDYNAAFMSRLNITKDNSKRQVFFKMNSLQADDTAIYYCAKSMITTGFVMDSWGQGTSVTVSS
VL: DIQLTQSPSSFSVSLGDRVTITCKASEDIYNRLTWYQQKPGNAPRLLISGATSLETGVPSRFSGSGSGKDYTLSITSLQTEDVATYYCQQYWSNPYTFGGGTKLEIR
notes: IgG format, captured on anti-human Fc; chimeric VL + chimeric VH (murine AT13/5 variable regions)
B13: the Kd in test [3] was 2.8 nM.
